Data published in US20060269543A1 (Amgen, published 2006).

T1: IFN-γ (human, UniProt P01579 24-166, limits assumed)
T1 sequence (looked up): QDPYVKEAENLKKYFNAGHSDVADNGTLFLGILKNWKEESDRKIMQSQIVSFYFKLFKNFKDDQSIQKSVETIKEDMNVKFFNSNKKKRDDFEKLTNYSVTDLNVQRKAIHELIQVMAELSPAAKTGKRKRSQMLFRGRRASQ

B1: full length human IgG1 antibody against human IFN-γ, filtered purified bulk (FPB) (antibody, V domains shown)
VH: EVQLVQSGAEVKKPGESLKISCKGSGYNFTSYWIGWVRQMPGKGLELMGIIYPGDSDTRYSPSFQGQVTISADKSISTAYLQWSSLKASDTAMYYCGSGSYFYFDLWGRGTLVTVSS
VL: EIVLTQSPGTLSLSPGERATLSCRASQSVSSSYLAWYQQKPGQAPRLLIYGASSRATGIPDRFSGSGSGTDFTLTISRLEPEDFAVYYCQRSGGSSFTFGPGTKVDIKR
modifications: N-glycan sites at amino acids 28 and 297 of SEQ ID NO:17 (VH and CH2); heterogeneously sialylated
B2: full length human IgG1 antibody against human IFN-γ, purified isoform Peak +2 (antibody, V domains shown)
VH: EVQLVQSGAEVKKPGESLKISCKGSGYNFTSYWIGWVRQMPGKGLELMGIIYPGDSDTRYSPSFQGQVTISADKSISTAYLQWSSLKASDTAMYYCGSGSYFYFDLWGRGTLVTVSS
VL: EIVLTQSPGTLSLSPGERATLSCRASQSVSSSYLAWYQQKPGQAPRLLIYGASSRATGIPDRFSGSGSGTDFTLTISRLEPEDFAVYYCQRSGGSSFTFGPGTKVDIKR
modifications: N-glycan sites at amino acids 28 and 297 of SEQ ID NO:17 (VH and CH2); sialylation isoform Peak +2
B3: full length human IgG1 antibody against human IFN-γ, purified isoform Peak 0 (antibody, V domains shown)
VH: EVQLVQSGAEVKKPGESLKISCKGSGYNFTSYWIGWVRQMPGKGLELMGIIYPGDSDTRYSPSFQGQVTISADKSISTAYLQWSSLKASDTAMYYCGSGSYFYFDLWGRGTLVTVSS
VL: EIVLTQSPGTLSLSPGERATLSCRASQSVSSSYLAWYQQKPGQAPRLLIYGASSRATGIPDRFSGSGSGTDFTLTISRLEPEDFAVYYCQRSGGSSFTFGPGTKVDIKR
modifications: N-glycan sites at amino acids 28 and 297 of SEQ ID NO:17 (VH and CH2); sialylation isoform Peak 0
B4: full length human IgG1 antibody against human IFN-γ, purified isoform Peak -2 (antibody, V domains shown)
VH: EVQLVQSGAEVKKPGESLKISCKGSGYNFTSYWIGWVRQMPGKGLELMGIIYPGDSDTRYSPSFQGQVTISADKSISTAYLQWSSLKASDTAMYYCGSGSYFYFDLWGRGTLVTVSS
VL: EIVLTQSPGTLSLSPGERATLSCRASQSVSSSYLAWYQQKPGQAPRLLIYGASSRATGIPDRFSGSGSGTDFTLTISRLEPEDFAVYYCQRSGGSSFTFGPGTKVDIKR
modifications: N-glycan sites at amino acids 28 and 297 of SEQ ID NO:17 (VH and CH2); sialylation isoform Peak -2
B5: full length human IgG1 antibody against human IFN-γ, purified isoform Peak +1 (antibody, V domains shown)
VH: EVQLVQSGAEVKKPGESLKISCKGSGYNFTSYWIGWVRQMPGKGLELMGIIYPGDSDTRYSPSFQGQVTISADKSISTAYLQWSSLKASDTAMYYCGSGSYFYFDLWGRGTLVTVSS
VL: EIVLTQSPGTLSLSPGERATLSCRASQSVSSSYLAWYQQKPGQAPRLLIYGASSRATGIPDRFSGSGSGTDFTLTISRLEPEDFAVYYCQRSGGSSFTFGPGTKVDIKR
modifications: N-glycan sites at amino acids 28 and 297 of SEQ ID NO:17 (VH and CH2); sialylation isoform Peak +1
B6: full length human IgG1 antibody against human IFN-γ, purified isoform Peak -1 (antibody, V domains shown)
VH: EVQLVQSGAEVKKPGESLKISCKGSGYNFTSYWIGWVRQMPGKGLELMGIIYPGDSDTRYSPSFQGQVTISADKSISTAYLQWSSLKASDTAMYYCGSGSYFYFDLWGRGTLVTVSS
VL: EIVLTQSPGTLSLSPGERATLSCRASQSVSSSYLAWYQQKPGQAPRLLIYGASSRATGIPDRFSGSGSGTDFTLTISRLEPEDFAVYYCQRSGGSSFTFGPGTKVDIKR
modifications: N-glycan sites at amino acids 28 and 297 of SEQ ID NO:17 (VH and CH2); sialylation isoform Peak -1

Target: T1, IFN-γ
Assay: cell-based or functional assay

IC50, A549 cell proliferation assay (ALAMARBLUE); sample stored 3 months at pH 5, 4° C.	IC50, A549 cell proliferation assay (ALAMARBLUE); sample stored 3 months at pH 5, 37° C.	Binder
0.0023 µg/mL	0.0027 µg/mL	B1
0.002 µg/mL	0.0032 µg/mL	B2
0.0024 µg/mL	0.0033 µg/mL	B3
0.0037 µg/mL	0.0038 µg/mL	B4
0.0018 µg/mL	0.0028 µg/mL	B5
0.003 µg/mL	0.0033 µg/mL	B6
